In article PMC2933939 (Bioorganic & medicinal chemistry, 2010):

Target: Heat shock protein 90 (Hsp90), purified, native (UniProt P07900 1-732)
Assay: pull-down

B1: Sansalvamide A-amide (San A-amide), compound 1, macrocycle Phe-Leu-Val-Leu-Leu (peptide)
peptide: FLVLL
modifications: head-to-tail cyclised macrocycle (cyclic pentapeptide)
IC50: 19.7 µM
